Self-cleavage data for 20 variants are collected here from the RNAGym collection of RNA variant scans (doi:10.7554/elife.90254).

First the molecules themselves.
B1: LINE1-full (parent)
chain: UACGUAGGUGGUUUUCCCCUGAUAGUGCUAAGGGGGCCUGGAAGUUUGGACUGGGCAGAGCUCAACACAGCGUGGCAAAGUGGCUGUGGCUAGACUGCCUCUCUGGAUUCCUCGUCACUCAGCAGGGCAUCUCUGAGAGAAAUGCC

In the data set the parent is B1. Description: self-cleavage, relative activity (ratio to wild type); higher = more cleavage; in vitro, sequencing; the parent is a self-cleaving ribozyme.
UACGUAGGUGGUUUUCCCCUGAUAGUGCUAAGGGGGCCUGGAAGCUUGGACUGGGCAGAGCUCAACACAGCGUGGCAAAGUGGCUGUGGCUAGACUGCCUCUCUAGAUUCCUCGUCACUCAGCAGGGCAUCUCUGAGAGAAAUGCC [U45C G105A]: the self-cleavage worked out at 1.34.

Regarding UACGUAGGUGGUUUUCCCCUGAUAGUGCUAAGGGGGCCUGGAAGCUUGGACUGGGCAGAGCUCAACACAGCGUGGCAAAGUGGCUGUGGCUAAACUGCCUCUCUGGAUUCCUCGUCACUCAGCAGGGCAUCUCUGAGAGAAAUGCC [U45C G93A], the self-cleavage came out at 0.07.

Turning to UACGUAGGUGGUUUUCCCCUGAUAGUGCUAAGGGGGCCUGGAAGCUUGGACUGGGCAGAGCUCAACACAGCGUGGCAAACUGGCUGUGGCUAGACUGCCUCUCUGGAUUCCUCGUCACUCAGCAGGGCAUCUCUGAGAGAAAUGCC [U45C G80C], the self-cleavage came out at 1.8.

As for UACGUAGGUGGUUUUCCCCUGAUAGUGCUAAGGGGGCCUGGAAGCUGGGACUGGGCAGAGCUCAACACAGCGUGGCAAAGUGGCUGUGGCUAGACUGCCUCUCUGGAUUCCUCGUCACUCAGCAGGGCAUCUCUGAGAGAAAUGCC [U45C U47G], the self-cleavage worked out at 1.09.

On to UACGUAGGUGGUUUUCCCCUGAUAGUGCUAAGGGGGCCUGGAAGCUCGGACUGGGCAGAGCUCAACACAGCGUGGCAAAGUGGCUGUGGCUAGACUGCCUCUCUGGAUUCCUCGUCACUCAGCAGGGCAUCUCUGAGAGAAAUGCC [U45C U47C], for which the self-cleavage is 1.23.

For UACGUAGGUGGUUUUCCCCUGAUAGUGCUAAGGGGGCCUGGAAGCUUGGACUGGGCAGAGCUCAACACAGCGUGGCAAAGUGGCUGUGGCUAGACUGCCUCUCUGGAUUCCUCGUCACUCAGCACGGCAUCUCUGAGAGAAAUGCC [U45C G125C], the self-cleavage is 1.13.

Regarding UACGUAGGUGGUUUUCCCCUGAUAGUGCUAAGGGGGCCUGGAAGCUUGGACUGGGCAGAGCUCAACACAGCGUGGCAAAGUGGCUGUGGCUAGACUGCCUCUCUGGAUUCCUCGUCACUCAGCAGGGCAUCUCUGAUAGAAAUGCC [U45C G137U], the self-cleavage stood at 1.23.

Consider UACGUAGGUGGUUUUCCCCUGAUAGUGCUAAGGGGGCCUGGAAGCUUGGACUGGGCAGAGCUCAACACAGCGUGGCAAAGUGGCUGUGGCUAGACUGCCUCUCUGGAUUCCUCGUCACUCAGCAGAGCAUCUCUGAGAGAAAUGCC [U45C G126A], for which the self-cleavage came out at 1.32.

For the variant UACGUAGGUGGUUUUCCCCUGAUAGUGCUAAGGGGGCCUGGAAGCUUGGACUGGGCAGAGCUCAACACAGCGUGGCAAAGUGGCUGUGGCUAGACUGCCUCUCUGGAUUCCUCGUCACUCAGCAGGGCAUCUCUGAGAGAAAUUCC [U45C G144U], the self-cleavage is 1.42.

Regarding UACGUAGGUGGUUUUCCCCUGAUAGUGCUAAGGGGGCCUGGAAGCUUGGACUGGGCAGAGCUCAACACAGCGUAGCAAAGUGGCUGUGGCUAGACUGCCUCUCUGGAUUCCUCGUCACUCAGCAGGGCAUCUCUGAGAGAAAUGCC [U45C G74A], the self-cleavage came to 1.25.

Regarding UACGUAGGUGGUUUUCCCCUGAUAGUGCUAAGGGGGCCUGGAAGCUUGGACUGGGCAGAGCUCAACACAGCGUGGCAAAGUGGCUGUGGCUAGACUGCCUCUCUGGAUUCCUCAUCACUCAGCAGGGCAUCUCUGAGAGAAAUGCC [U45C G114A], the self-cleavage worked out at 1.48.

Consider UACGUAGGUGGUUUUCCCCUGAUAGUGCUAAGGGGGCCUGGAAGCUUGGACUGGGCAGAGCUCAACACAGCGUGGCAAAGUGGCUGUGGCUAGACUGCCUCUCUGGAUUCCUCGUCACUCAACAGGGCAUCUCUGAGAGAAAUGCC [U45C G122A], for which the self-cleavage was 0.81.

As for UACGUAGGUGGUUUUCCCCUGAUAGUGCUAAGGGGGCCUGGAAGCUUGGACUGGGCAGAGCUCAACACAGCGUGGCAAAGUGGCUGUGGCUAGACUGCCUCUCUGGAUUCCUCGUCACUCAGCAGGGCAUCUCUGAGACAAAUGCC [U45C G139C], the self-cleavage was 1.63.

Take UACGUAGGUGGUUUUCCCCUGAUAGUGCUAAGGGGGCCUGGAAGCUUGGACUGGGCAGAGCUCAACACAGCGUGACAAAGUGGCUGUGGCUAGACUGCCUCUCUGGAUUCCUCGUCACUCAGCAGGGCAUCUCUGAGAGAAAUGCC [U45C G75A]: the self-cleavage came out at 1.13.

With UACGUAGGUGGUUUUCCCCUGAUAGUGCUAAGGGGGCCUGGAAGCUUGGACUGGGCAGAGCUCAACACAGCGUGGCAAAGUGGCUGUAGCUAGACUGCCUCUCUGGAUUCCUCGUCACUCAGCAGGGCAUCUCUGAGAGAAAUGCC [U45C G88A], the self-cleavage was determined as 0.08.

Regarding UACGUAGGUGGUUUUCCCCUGAUAGUGCUAAGGGGGCCUGGAAGCUUGGACUGGGCAGAGCUCAACACAUCGUGGCAAAGUGGCUGUGGCUAGACUGCCUCUCUGGAUUCCUCGUCACUCAGCAGGGCAUCUCUGAGAGAAAUGCC [U45C G70U], the self-cleavage was determined as 0.06.

With UACGUAGGUGGUUUUCCCCUGAUAGUGCUAAGGGGGCCUGGAAGCUUGGACUGGGCAGAGCACAACACAGCGUGGCAAAGUGGCUGUGGCUAGACUGCCUCUCUGGAUUCCUCGUCACUCAGCAGGGCAUCUCUGAGAGAAAUGCC [U45C U62A], the self-cleavage was determined as 0.04.

As for UACGUAGGUGGUUUUCCCCUGAUAGUGCUAAGGGGGCCUGGAAGCUUGGACUGGGCAGAGCGCAACACAGCGUGGCAAAGUGGCUGUGGCUAGACUGCCUCUCUGGAUUCCUCGUCACUCAGCAGGGCAUCUCUGAGAGAAAUGCC [U45C U62G], the self-cleavage was 0.

Turning to UACGUAGGUGGUUUUCCCCUGAUAGUGCUAAGGGGGCCUGGAAGCUUGGACAGGGCAGAGCUCAACACAGCGUGGCAAAGUGGCUGUGGCUAGACUGCCUCUCUGGAUUCCUCGUCACUCAGCAGGGCAUCUCUGAGAGAAAUGCC [U45C U52A], the self-cleavage was 1.33.

Turning to UACGUAGGUGGUUUUCCCCUGAUAGUGCUAAGGGGGCCUGGAAGCUUGGACUGGGCAGAGCUCAACACAGCGUGGCAAAGUGGCUGUGGCUAGACUGCCUCUCUGGAUUCCUCGUCACUCAGCAGGGCAUCUCUAAGAGAAAUGCC [U45C G135A], the self-cleavage was 1.28.
